# From patent US20230338555A1 (IONIS PHARMACEUTICALS, published 2023)
# Read-outs that look alike come from different tables or passages of the source. Ends that are not written are not given here. * marks the point of attachment. Azidoacetyl = [N-]=[N+]=NCC(=O)*
# T1: human sortilin stably expressed on HEK 293 cells (HEK-SORT1 cells) (human, UniProt Q99523 78-831)
# T1 sequence (looked up): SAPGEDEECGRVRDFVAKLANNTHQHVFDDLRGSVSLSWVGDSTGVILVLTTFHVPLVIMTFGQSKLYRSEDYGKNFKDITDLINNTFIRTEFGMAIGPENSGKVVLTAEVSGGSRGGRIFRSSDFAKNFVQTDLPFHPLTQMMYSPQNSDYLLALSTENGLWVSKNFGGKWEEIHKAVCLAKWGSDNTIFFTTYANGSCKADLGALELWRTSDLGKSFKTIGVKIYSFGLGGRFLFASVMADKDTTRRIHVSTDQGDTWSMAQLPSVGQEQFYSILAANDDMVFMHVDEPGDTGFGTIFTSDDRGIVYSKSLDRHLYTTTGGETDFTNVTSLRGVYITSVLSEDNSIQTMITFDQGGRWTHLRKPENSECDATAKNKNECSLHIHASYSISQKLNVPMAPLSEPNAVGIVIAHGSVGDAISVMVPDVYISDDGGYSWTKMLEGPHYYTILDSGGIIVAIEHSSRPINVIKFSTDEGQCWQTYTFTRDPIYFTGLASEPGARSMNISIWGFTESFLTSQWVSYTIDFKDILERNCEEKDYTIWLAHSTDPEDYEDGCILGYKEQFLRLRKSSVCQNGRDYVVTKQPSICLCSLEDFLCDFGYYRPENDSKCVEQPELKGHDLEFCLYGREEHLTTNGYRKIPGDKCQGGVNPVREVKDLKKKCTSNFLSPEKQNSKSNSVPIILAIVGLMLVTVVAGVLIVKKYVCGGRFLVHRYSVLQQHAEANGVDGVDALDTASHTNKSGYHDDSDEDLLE
# B1: Compound 17-AE-9199, Cy3-labeled [SO5P]LYEN[azido-acetyl-K]PRRPYIL peptide (peptide)
# peptide: LYENXPRRPYIL
# modifications: not fully specified; position 1 is SO5P (5-oxoproline); internal lysine (LYEN-K) carries the azido-acetyl group joined to Cy3-BCN reagent (Cy3 label)
# B2: Compound No. 1091165, [SO5P]-LYEN[azido-acetyl-K]PRRPYIL peptide conjugated to 20-mer MOE oligonucleotide with 3'-Cy3 (peptide)
# peptide: LYENXPRRPYIL
# modifications: not fully specified; position 1 is SO5P (5-oxoproline); internal lysine (LYEN-K) side chain azido-acetyl joined via triazolo-BCN carbamate / 6-aminohexanol linker to 5' end of … (SEQ ID NO 2, uniform MOE, phosphodiester, 3'-Cy3)
# B3: Compound No. 1270697, … peptide conjugated to 20-mer MOE oligonucleotide with 3'-Cy3 (peptide)
# peptide: K(Azidoacetyl)LYENKPKKPYIL
# modifications: not fully specified; printed as 2-azido-acetyl-KLYENKPKKPYIL; also: azide joined via triazolo-BCN carbamate/6-aminohexanol linker to 5' end of 20-mer MOE oligonucleotide CCAGGCTGGTTATGACTCAG (uniform MOE, phosphodiester, 3'-Cy3)
# B4: Compound No. 1270696, XLYENKPRKPYIL peptide conjugated to 20-mer MOE oligonucleotide with 3'-Cy3 (peptide)
# peptide: KLYENKPRKPYIL
# modifications: not fully specified (residue 1)
# B5: Compound No. 1252443, XPAPSGPSPGLYENKPRRPYIL peptide conjugated to 20-mer MOE oligonucleotide with 3'-Cy3 (peptide)
# peptide: KPAPSGPSPGLYENKPRRPYIL
# modifications: not fully specified (residue 1); also: X side chain clicked via BCN (triazole) and 6-aminohexanol linker to 5' end of oligonucleotide CCAGGCTGGTTATGACTCAG (MOE, 3'-Cy3)
# B6: Compound No. 1252444, XAGSIKPPPAGSSPGLYENKPRRPYIL peptide conjugated to 20-mer MOE oligonucleotide with 3'-Cy3 (peptide)
# peptide: KAGSIKPPPAGSSPGLYENKPRRPYIL
# modifications: not fully specified (residue 1); also: X side chain clicked via BCN (triazole) and 6-aminohexanol linker to 5' end of oligonucleotide CCAGGCTGGTTATGACTCAG (MOE, 3'-Cy3)
# Assays:
# Assay in all cases: cell-based or functional assay
# [1] = target: T1, human sortilin stably expressed on HEK …
# [2] = target: T1, human sortilin stably expressed on HEK …; remark: listed apart in the source
# [3] = target: T1, human sortilin stably expressed on HEK …; remark: listed apart in the source
Binder,"Mean Fluorescence Intensity (MFI), uptake 37C-4C, at 12 nM [1] [MFI]","Mean Fluorescence Intensity (MFI), uptake 37C-4C, at 37 nM [1] [MFI]","Mean Fluorescence Intensity (MFI), uptake 37C-4C, at 111 nM [1] [MFI]","Mean Fluorescence Intensity (MFI), uptake 37C-4C, at 333 nM [1] [MFI]","Mean Fluorescence Intensity (MFI), uptake 37C-4C, at 1000 nM [1] [MFI]","Mean Fluorescence Intensity (MFI), uptake 37C-4C, at 12 nM [2] [MFI]","Mean Fluorescence Intensity (MFI), uptake 37C-4C, at 37 nM [2] [MFI]","Mean Fluorescence Intensity (MFI), uptake 37C-4C, at 111 nM [2] [MFI]","Mean Fluorescence Intensity (MFI), uptake 37C-4C, at 333 nM [2] [MFI]","Mean Fluorescence Intensity (MFI), uptake 37C-4C, at 1000 nM [2] [MFI]","Mean Fluorescence Intensity (MFI), uptake 37C-4C, at 7 nM [3] [MFI]","Mean Fluorescence Intensity (MFI), uptake 37C-4C, at 22 nM [3] [MFI]","Mean Fluorescence Intensity (MFI), uptake 37C-4C, at 76 nM [3] [MFI]","Mean Fluorescence Intensity (MFI), uptake 37C-4C, at 260 nM [3] [MFI]","Mean Fluorescence Intensity (MFI), uptake 37C-4C, at 882 nM [3] [MFI]","Mean Fluorescence Intensity (MFI), uptake 37C-4C, at 3000 nM [3] [MFI]"
B1,174,378,825,1090,1220,,,,,,,,,,,
B2,45,53,60,73,97,,,,,,,,,,,
B3,,,,,,39,51,86,185,474,,,,,,
B4,,,,,,43,61,138,312,1100,,,,,,
B5,,,,,,,,,,,53,130,413,1230,2430,3390
B6,,,,,,,,,,,90,208,609,1530,2510,3390
